Laboratory results: article PMC5779224 (2017)

What was measured:
[1] = target: T1, AnkG 38–855 (AnkG MBD-AI-c protein; MBD + partial AI-c) (rat, UniProt O70511-1 38-855); assay: ITC; reported in Wang et al 2014
T1 chain: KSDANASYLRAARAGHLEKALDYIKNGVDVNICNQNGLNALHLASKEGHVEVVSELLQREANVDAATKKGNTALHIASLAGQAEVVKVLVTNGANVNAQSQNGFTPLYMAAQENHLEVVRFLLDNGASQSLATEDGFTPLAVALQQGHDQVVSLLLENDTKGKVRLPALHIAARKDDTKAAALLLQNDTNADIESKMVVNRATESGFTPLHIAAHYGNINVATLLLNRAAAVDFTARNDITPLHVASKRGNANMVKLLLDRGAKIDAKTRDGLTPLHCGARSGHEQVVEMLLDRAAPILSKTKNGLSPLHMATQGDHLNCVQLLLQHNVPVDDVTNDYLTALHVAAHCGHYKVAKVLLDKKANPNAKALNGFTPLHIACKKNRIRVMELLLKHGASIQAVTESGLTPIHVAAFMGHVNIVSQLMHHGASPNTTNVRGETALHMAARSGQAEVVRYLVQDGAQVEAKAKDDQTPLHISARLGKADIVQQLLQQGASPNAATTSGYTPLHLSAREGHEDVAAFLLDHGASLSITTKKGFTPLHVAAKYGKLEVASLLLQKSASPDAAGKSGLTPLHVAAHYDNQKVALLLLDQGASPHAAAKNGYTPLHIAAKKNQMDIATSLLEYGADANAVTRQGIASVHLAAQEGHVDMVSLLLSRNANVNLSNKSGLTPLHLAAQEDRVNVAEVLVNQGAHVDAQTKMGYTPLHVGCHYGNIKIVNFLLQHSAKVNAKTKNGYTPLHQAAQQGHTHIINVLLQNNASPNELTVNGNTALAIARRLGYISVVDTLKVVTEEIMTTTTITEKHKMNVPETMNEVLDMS

[2] = target: T2, AnkG 38–903 (MBD + AI-c + AI-b) (rat, UniProt O70511-1 38-903); assay: ITC
T2 chain: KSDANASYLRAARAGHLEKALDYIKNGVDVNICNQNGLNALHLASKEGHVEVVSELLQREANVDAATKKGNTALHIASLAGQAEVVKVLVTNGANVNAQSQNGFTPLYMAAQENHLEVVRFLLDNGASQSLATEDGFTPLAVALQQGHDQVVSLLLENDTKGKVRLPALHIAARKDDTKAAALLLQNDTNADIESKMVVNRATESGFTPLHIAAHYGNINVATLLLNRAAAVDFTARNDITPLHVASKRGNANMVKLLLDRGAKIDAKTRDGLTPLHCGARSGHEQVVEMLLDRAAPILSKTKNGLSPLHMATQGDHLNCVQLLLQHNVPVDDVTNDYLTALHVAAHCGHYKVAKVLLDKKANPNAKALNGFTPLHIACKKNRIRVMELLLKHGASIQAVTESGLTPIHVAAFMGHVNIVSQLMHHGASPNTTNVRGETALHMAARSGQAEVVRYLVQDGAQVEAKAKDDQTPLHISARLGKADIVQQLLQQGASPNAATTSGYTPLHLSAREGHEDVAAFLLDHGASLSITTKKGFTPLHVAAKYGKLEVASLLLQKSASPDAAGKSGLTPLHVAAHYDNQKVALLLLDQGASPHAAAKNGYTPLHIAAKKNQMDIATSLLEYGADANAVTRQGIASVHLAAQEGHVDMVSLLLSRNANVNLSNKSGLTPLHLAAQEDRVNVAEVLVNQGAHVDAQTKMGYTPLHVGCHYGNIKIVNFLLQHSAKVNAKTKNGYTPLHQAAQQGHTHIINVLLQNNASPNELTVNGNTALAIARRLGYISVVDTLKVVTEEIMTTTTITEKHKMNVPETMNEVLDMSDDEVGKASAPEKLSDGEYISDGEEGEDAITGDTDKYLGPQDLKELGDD

[3] = target: T3, AnkB 28–965 (MBD + AI-c + AI-b) (human, UniProt Q01484-2 28-965); assay: ITC
T3 chain: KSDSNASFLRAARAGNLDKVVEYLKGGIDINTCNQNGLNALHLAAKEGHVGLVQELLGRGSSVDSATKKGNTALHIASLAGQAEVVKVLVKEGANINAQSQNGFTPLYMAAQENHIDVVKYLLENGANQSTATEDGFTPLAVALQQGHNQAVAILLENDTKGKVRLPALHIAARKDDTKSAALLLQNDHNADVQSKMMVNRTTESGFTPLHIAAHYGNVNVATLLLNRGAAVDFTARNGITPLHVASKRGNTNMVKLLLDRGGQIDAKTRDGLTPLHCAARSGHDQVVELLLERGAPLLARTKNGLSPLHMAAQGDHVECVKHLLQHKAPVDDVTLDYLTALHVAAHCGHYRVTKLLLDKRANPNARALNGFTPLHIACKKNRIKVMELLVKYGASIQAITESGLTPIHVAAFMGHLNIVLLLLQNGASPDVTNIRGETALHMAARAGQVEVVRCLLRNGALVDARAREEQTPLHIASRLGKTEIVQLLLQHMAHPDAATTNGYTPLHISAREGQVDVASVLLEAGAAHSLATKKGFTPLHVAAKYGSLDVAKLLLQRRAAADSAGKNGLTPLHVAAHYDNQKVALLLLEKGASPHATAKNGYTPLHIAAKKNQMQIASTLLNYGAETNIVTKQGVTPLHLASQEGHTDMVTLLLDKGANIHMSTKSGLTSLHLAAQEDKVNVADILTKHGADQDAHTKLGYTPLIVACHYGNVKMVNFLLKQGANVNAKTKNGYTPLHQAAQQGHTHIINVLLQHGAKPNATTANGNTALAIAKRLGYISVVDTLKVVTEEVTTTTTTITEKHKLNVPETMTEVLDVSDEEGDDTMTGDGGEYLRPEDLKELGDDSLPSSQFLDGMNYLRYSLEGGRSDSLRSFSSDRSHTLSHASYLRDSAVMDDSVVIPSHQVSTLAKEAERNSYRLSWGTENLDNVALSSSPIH

SDDSLVDYGEGGEGQFNEDGSFIGQYTV (domain or fragment) [NF186 (aa 1187–1214)]
Kd [1]: 0.21 µM | Kd [2]: 4.2 µM | Kd [3]: 23 µM
